This passage reports co-IP mass spectrometry count results from US20240261333A1, “NOVEL TARGETS FOR ENHANCING ANTI-TUMOR IMMUNITY” (THE BROAD INSTITUTE, INC., priority 2021, published 2024).

Test [1] has as its target TRAFD1 (human) (UniProt O14545). Description: anti-FLAG co-IP from lysate of C-FLAG B3GNT2 cells, mass spectrometry.
For test [2], the target named is HSP90AB1 (human) (UniProt P08238). The test is described as above.
The target in test [3] is LARP4 (human) (UniProt Q71RC2). Described as above.
Test [4] addresses AIFM1 (human) (UniProt O95831). The test is described as above.
For test [5], the target named is STAU1 (human) (UniProt O95793). Described as above.
Test [6] has as its target RPL15 (human) (UniProt P61313). The test is described as above.
Test [7] addresses SLC25A22 (human) (UniProt Q9H936). The description is as above.
In test [8] the target is TECR (human) (UniProt Q9NZ01). Described as above.
The target in test [9] is DNAJA3 (human) (UniProt Q96EY1). Described as above.
Test [10] addresses ABCD1 (human) (UniProt P33897). Described as above.
The target of test [11] is PXN (human) (UniProt P49023). The test is described as above.
Test [12] has as its target ATAD3A (human) (UniProt Q9NVI7). The description is as above.
For test [13], the target named is SFXN3 (human) (UniProt Q9BWM7). The test is described as above.
Test [14] deals with NTPCR (human) (UniProt Q9BSD7). Described as above.
In test [15] the target is LDHA (human) (UniProt P00338). The description is as above.
Test [16] has as its target TRAFD1 (human) (UniProt O14545). Description: IgG control IP from lysate of C-FLAG B3GNT2 cells, mass spectrometry.
Test [17] has as its target HSP90AB1 (human) (UniProt P08238). The description is as above.
Test [18] addresses LARP4 (human) (UniProt Q71RC2). The test is described as above.
In test [19] the target is ERP44 (human) (UniProt Q9BS26). Described as above.
Test [20] addresses RCN1 (human) (UniProt Q15293). Described as above.
For test [21], the target named is KTN1 (human) (UniProt Q86UP2). The test is described as above.
The target in test [22] is RPL15 (human) (UniProt P61313). The description is as above.
The target in test [23] is SLC25A22 (human) (UniProt Q9H936). Described as above.
Test [24] deals with RPL34 (human) (UniProt P49207). Described as above.
The target of test [25] is PSMC2 (human) (UniProt P35998). The test is described as above.
The target of test [26] is H1FX (human) (UniProt Q92522). The description is as above.
Test [27] deals with IFI16 (human) (UniProt Q16666). Described as above.
Test [28] concerns the target ABCD1 (human) (UniProt P33897). Described as above.
In test [29] the target is ERP29 (human) (UniProt P30040). The test is described as above.
Test [30] has as its target PGAM5 (human) (UniProt Q96HS1). The description is as above.
The target of test [31] is PSMB4 (human) (UniProt P28070). Described as above.
The target in test [32] is TUBA1C (human) (UniProt Q9BQE3). Described as above.
The target in test [33] is EEF2 (human) (UniProt P13639). The description is as above.
The target of test [34] is ATAD3A (human) (UniProt Q9NVI7). The test is described as above.
Test [35] concerns the target SFXN3 (human) (UniProt Q9BWM7). The description is as above.
Test [36] addresses UBTF (human) (UniProt P17480). The test is described as above.
Test [37] addresses NTPCR (human) (UniProt Q9BSD7). The description is as above.
Test [38] addresses LDHA (human) (UniProt P00338). Described as above.

Sequence of SFXN3 (human) (Q9BWM7 whole entry): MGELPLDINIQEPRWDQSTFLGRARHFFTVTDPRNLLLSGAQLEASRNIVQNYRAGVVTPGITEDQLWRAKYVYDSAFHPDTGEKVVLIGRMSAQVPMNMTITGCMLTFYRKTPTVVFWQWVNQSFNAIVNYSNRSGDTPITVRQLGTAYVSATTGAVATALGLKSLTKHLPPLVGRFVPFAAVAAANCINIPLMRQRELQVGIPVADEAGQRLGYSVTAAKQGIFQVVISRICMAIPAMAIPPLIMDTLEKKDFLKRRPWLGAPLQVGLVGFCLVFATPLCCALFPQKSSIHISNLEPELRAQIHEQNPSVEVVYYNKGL
Sequence of SLC25A22 (human) (Q9H936 whole entry): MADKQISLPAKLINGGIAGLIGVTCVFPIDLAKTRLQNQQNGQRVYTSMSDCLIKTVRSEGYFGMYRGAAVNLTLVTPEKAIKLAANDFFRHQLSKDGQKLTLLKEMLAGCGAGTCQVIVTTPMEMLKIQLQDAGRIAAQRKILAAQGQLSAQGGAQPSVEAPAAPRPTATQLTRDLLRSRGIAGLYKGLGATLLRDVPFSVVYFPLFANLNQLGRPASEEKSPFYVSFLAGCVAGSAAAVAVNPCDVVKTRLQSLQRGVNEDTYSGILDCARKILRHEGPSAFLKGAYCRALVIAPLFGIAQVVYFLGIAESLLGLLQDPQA
Sequence of ATAD3A (human) (Q9NVI7 2-586 limits assumed): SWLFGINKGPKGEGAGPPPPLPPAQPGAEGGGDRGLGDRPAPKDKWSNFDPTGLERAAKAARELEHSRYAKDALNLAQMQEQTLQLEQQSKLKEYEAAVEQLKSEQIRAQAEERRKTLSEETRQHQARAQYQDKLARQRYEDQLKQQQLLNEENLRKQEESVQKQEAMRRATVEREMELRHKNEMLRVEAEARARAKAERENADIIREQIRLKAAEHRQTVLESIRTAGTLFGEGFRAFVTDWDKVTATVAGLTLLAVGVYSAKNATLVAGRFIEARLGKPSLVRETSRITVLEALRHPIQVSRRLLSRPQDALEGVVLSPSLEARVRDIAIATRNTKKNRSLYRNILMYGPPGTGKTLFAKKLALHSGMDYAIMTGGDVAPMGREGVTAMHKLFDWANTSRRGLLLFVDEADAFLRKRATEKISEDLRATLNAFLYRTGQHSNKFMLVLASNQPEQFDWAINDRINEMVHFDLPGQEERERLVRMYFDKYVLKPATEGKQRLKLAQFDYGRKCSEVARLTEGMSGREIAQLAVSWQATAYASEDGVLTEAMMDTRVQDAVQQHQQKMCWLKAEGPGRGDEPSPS
Sequence of TRAFD1 (human) (O14545 2-582 limits assumed): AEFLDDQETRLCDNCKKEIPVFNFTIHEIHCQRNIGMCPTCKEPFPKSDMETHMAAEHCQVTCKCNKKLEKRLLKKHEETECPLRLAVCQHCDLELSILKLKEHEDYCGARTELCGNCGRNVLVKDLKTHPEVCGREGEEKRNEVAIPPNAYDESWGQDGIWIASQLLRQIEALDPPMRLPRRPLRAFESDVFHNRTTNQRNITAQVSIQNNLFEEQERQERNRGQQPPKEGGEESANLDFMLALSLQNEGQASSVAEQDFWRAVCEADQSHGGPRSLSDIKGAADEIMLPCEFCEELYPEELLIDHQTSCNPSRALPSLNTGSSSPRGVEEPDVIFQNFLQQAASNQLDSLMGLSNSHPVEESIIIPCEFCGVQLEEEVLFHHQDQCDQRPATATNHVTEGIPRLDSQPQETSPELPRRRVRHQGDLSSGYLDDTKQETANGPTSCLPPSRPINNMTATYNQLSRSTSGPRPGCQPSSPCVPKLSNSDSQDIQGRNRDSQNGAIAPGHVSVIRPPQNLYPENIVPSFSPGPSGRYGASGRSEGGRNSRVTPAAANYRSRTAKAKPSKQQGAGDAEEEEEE
Sequence of NTPCR (human) (Q9BSD7 2-190 limits assumed): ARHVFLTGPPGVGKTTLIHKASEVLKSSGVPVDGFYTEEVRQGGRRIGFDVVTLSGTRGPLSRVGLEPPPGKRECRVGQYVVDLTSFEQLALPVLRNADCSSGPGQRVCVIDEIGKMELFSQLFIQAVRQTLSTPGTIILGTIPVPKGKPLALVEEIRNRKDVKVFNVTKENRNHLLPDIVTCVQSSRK
Sequence of HSP90AB1 (human) (P08238 2-724 limits assumed): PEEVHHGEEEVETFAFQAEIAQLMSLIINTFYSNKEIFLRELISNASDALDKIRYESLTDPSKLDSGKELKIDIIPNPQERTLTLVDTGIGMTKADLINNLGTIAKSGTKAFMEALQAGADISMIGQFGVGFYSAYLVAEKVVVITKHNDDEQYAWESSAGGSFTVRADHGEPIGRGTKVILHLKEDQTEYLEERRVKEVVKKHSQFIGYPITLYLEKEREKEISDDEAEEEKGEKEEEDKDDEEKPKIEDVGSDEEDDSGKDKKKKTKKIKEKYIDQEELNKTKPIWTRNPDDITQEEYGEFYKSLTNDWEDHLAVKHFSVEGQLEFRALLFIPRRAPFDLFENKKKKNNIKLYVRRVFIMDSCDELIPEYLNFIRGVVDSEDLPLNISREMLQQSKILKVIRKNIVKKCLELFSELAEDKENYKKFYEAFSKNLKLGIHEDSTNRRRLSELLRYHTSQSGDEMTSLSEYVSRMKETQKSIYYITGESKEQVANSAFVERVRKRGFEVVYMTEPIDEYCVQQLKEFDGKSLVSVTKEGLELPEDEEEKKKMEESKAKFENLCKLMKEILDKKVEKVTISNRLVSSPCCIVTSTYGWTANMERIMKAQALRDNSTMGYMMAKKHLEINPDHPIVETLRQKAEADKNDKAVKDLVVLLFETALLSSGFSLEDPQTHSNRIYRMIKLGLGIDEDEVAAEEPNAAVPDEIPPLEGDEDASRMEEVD
Sequence of ABCD1 (human) (P33897 whole entry): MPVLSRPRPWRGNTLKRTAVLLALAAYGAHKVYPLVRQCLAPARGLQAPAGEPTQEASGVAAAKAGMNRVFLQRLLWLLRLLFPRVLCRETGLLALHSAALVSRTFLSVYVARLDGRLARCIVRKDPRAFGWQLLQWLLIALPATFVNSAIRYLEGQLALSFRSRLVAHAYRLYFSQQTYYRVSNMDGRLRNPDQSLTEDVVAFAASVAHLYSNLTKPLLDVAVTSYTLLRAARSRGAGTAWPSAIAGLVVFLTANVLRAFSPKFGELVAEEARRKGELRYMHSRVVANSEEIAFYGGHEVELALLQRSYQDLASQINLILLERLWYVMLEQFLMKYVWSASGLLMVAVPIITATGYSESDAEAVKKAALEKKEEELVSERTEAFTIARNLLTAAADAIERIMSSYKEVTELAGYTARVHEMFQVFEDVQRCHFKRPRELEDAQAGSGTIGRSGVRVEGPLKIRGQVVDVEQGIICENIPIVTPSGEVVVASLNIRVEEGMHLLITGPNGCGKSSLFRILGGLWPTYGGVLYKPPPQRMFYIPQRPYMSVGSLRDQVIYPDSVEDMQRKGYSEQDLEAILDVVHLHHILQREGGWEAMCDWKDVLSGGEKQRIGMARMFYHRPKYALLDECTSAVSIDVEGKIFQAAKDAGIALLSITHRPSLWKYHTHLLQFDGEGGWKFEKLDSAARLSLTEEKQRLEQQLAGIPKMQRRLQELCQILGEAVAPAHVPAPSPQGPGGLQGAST
Sequence of PSMC2 (human) (P35998 2-433 limits assumed): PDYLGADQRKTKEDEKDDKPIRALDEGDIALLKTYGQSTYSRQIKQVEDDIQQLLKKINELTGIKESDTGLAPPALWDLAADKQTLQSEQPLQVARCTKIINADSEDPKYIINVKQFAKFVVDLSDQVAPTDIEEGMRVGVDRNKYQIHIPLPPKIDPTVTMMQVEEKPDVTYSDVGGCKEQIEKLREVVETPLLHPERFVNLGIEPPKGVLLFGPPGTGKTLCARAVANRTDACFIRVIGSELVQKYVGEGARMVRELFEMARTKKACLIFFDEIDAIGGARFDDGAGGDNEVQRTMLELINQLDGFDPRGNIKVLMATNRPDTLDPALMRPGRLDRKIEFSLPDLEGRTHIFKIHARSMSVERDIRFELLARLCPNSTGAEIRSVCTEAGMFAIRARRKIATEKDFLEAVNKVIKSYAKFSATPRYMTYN
Sequence of H1FX (human) (Q92522 2-213 limits assumed): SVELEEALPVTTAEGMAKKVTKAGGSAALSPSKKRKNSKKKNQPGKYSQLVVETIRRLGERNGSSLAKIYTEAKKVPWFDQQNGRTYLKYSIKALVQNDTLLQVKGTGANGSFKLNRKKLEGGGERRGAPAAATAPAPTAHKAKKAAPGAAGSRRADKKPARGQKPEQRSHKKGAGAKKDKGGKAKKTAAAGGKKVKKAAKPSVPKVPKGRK
Sequence of ERP44 (human) (Q9BS26 30-406 limits assumed): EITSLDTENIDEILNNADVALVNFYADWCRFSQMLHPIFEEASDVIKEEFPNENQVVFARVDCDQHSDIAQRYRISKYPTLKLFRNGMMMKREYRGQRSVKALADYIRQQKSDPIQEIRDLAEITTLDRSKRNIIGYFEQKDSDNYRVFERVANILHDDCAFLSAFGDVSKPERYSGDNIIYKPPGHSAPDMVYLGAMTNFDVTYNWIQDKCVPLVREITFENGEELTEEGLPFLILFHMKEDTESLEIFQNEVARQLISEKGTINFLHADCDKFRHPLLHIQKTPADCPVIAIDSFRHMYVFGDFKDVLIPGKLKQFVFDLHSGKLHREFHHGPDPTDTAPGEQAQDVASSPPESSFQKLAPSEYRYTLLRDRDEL
Sequence of DNAJA3 (human) (Q96EY1 other isoform, or with tags, fused parts or gaps limits assumed): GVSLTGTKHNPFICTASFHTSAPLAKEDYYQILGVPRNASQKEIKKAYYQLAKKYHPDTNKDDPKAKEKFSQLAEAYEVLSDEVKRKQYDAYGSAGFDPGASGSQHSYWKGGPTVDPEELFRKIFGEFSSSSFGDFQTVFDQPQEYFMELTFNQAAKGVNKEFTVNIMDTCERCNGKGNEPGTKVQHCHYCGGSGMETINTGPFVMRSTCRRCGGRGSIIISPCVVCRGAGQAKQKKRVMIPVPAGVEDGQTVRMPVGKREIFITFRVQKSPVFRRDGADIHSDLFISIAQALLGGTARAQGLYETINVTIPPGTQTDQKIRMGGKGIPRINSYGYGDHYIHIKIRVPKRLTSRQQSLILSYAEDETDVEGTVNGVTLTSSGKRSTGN

Turning to “C-terminal FLAG tagged B3GNT2 (from UniProt Q9NY97 1-397) (enzyme)”, the co-IP mass spectrometry count stood at 2 in test [1]; 11 in test [2]; 2 in [3]; 5 in [4]; 6 in test [5]; 15 in test [6]. In addition, the co-IP mass spectrometry count in test [7] was 2; in test [8], 9; in test [9], 2; in test [10] it was 2; in [11] it was 0; in test [12], 9. For the same substance, the co-IP mass spectrometry count in [13] is 2; in [14] it was 2; in test [15], 4.
Consider “IgG control (Millipore Sigma 12-371) (antibody)”, for which the co-IP mass spectrometry count in test [16] amounted to 0; in test [17], 2; in test [18], 0; in [19] it was 0; in test [20], 0; in test [21] it was 0. For the same substance, the co-IP mass spectrometry count is 2 in [22]; 0 in test [23]; 0 in test [24]; 0 in test [25]; 0 in [26]; 0 in test [27]. The co-IP mass spectrometry count in test [28] turned out to be 0; in test [29] it was 0; in test [30], 0; in test [31], 0; in test [32], 14; in test [33], 0. In addition, the co-IP mass spectrometry count in [34], in [35], in [36], in [37] and in [38] was 0 each time.
